In patent US5726050 one finds binding signal (fold weaker than supercoiled) and binding signal data, which are given here for two substances.

This data set addresses double-stranded RNA adenosine deaminase (dsrad, 140 kDa Z-DNA binding protein) (Gallus gallus) (UniProt A0A8V1AB28). The data set can be described thus: competition. To be noted: bandshift competition.
Sequence of UniProt A0A8V1AB28 (A0A8V1AB28 entry or part of it): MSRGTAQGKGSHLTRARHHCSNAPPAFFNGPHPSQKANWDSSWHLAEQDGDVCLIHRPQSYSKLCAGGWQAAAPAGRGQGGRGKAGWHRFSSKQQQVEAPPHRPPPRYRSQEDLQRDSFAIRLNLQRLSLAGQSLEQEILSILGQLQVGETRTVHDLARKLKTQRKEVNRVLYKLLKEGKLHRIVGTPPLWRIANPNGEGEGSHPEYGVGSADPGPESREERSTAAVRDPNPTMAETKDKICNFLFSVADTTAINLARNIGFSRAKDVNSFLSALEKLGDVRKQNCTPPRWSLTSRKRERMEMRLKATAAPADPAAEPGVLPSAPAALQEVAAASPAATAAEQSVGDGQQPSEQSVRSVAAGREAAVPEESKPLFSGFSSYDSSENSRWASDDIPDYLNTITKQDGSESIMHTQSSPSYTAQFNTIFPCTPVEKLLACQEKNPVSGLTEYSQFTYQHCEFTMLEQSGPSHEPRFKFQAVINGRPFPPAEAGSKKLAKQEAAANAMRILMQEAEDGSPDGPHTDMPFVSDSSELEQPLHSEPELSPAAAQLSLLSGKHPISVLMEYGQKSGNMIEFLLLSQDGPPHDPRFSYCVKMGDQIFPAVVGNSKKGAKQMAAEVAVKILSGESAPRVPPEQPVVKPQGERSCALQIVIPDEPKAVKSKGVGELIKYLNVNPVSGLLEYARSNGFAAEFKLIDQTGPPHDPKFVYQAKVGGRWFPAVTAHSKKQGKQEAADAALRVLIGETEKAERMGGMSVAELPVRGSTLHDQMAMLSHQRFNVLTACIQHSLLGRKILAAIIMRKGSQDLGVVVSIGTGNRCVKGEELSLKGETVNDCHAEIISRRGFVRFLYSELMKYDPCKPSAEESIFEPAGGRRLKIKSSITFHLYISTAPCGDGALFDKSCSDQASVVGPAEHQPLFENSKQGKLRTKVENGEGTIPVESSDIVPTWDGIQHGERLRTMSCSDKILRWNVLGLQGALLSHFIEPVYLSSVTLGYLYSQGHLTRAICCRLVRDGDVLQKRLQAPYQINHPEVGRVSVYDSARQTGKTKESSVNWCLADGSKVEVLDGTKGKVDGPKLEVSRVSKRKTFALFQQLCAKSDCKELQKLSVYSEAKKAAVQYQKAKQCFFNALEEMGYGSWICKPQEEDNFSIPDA

With pDHg16 relaxed by topoisomerase I, the binding signal (fold weaker than supercoiled) (relaxed with calf thymus topoisomerase I) is 100.

Regarding “pDHg16 supercoiled plasmid with d(CG)13 insert”, the binding signal (reference, bacterial superhelical density) stood at 1 fold.
